One test deals with T1, Mus4-1BB-hFc (mouse; human, UniProt P20334 24-187).
T1 construct: range 24-187; also called 鼠4-1BB抗原蛋白Mus4-1BB-hFc; not shown: Fc tag made by the same method as for hu4-1BB-hFc (human IgG1 Fc fragment)
T1 sequence (looked up): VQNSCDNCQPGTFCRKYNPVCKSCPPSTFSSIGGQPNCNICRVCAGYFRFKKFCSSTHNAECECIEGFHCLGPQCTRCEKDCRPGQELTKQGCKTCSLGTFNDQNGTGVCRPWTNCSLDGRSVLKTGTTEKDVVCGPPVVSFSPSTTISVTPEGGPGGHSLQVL
Description: ELISA, Mus4-1BB-hFc coated at 2 μg/mL, anti-human kappa+lambda-HRP.

The target of a further test is T2, hu4-1BB-His (human, UniProt Q07011 24-186).
T2 construct: range 24-186; Expressed in ExpiCHO and purified on Ni beads; also called 抗原蛋白hu4-1BB-His; 人4-1BB抗原蛋白; not shown: C-terminal His tag
Description: ELISA, hu4-1BB-His coated at 2 μg/mL, anti-human IgG Fc-HRP. In general terms: In an ELISA, binding on a coated surface is turned into a signal by an enzyme label.

The next test has as its target T3, hu4-1BB-hFc (human, UniProt Q07011 24-186).
T3 construct: range 24-186; also called 4-1BB-Fc; not shown: human IgG1 Fc fragment fused at the C-terminus
The experiment in a line: ELISA.

In a further test the target is T4, 生物素化的hu4-1BB-hFc (human, UniProt Q07011 24-186, EZ-Link Sulfo-NHS-LC-biotin label; the sites are not stated).
T4 construct: range 24-186; also called 生物素标记的hu4-1BB-hFc抗原蛋白; biotinylated hu4-1BB-hFc; not shown: human IgG1 Fc fragment fused at the C-terminus
Description: ELISA.

The target in test [1] is T5, 人4-1BB (Uniprot编号Q07011), expressed on cells (human, UniProt Q07011 24-255).
T5 construct: whole, on cells; also called hu4-1BB-CHO; 人4-1BB过表达细胞
T5 sequence (Q07011 24-255): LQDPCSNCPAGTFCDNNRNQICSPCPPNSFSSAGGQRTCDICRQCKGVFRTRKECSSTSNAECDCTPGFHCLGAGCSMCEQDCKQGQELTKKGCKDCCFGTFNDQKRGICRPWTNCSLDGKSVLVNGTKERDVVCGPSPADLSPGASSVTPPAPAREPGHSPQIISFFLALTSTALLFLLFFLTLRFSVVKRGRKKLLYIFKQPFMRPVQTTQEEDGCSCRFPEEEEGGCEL
Description: flow cytometry on hu4-1BB-CHO cells.

Residue numbers refer to the chain shown, from its start.

B1: 99-2-35 (antibody, human IgG4 S228P, kappa, V domains shown)
VH: EVQLLESGGGLVQPGGSLRLSCAASGFTFSSYEMNWVRQAPGKGLEWVSYISSSGSTIYYADSVKGRFTISRDNAKNSLYLQMNSLRAEDTAVYYCARDFNGGYSYYPIAFDIWGQGTMVTVSS
VL: EIVLTQSPATLSLSPGERATLSCRASQSVSSYLAWYQQKPGQAPRLLIYDASNRATGIPARFSGSGSGTDFTLTISSLEPEDFAVYYCQQRSNWPPMYTFGQGTKLEIKR
notes: also called 抗体99-2-35; 母本抗体99-2-35
A word on the EC50: it is the concentration needed to bring the measured effect to its halfway point. A low value points to a more potent agent. For the molecule B1, the binding result in the test with Mus4-1BB-hFc is reported as “binds”. This molecule registered a half-maximal effective concentration (EC50) with hu4-1BB-His of 0.35 µg/mL.

B2: 99-2-17 (antibody, human IgG4 S228P, lambda, V domains shown)
VH: QVQLVQSGGGLVQPGGSLRLSCSASGFTFSSYAMHWVRQAPGKGLEYVSAISSNGGSTYYADSVKGRFTISRDNSKNTLYLQMSSLRAEDTAVYYCVKGSGWSPIDAFDIWGQGTMVTVSS
VL: QSALTQPPSVSGAPGQRVTISCTGSSSNIGAGYDVHWYQQLPGTAPKLLIYGNSNRPSGVPDRFSGSKSGTSASLAITGLQAEDEADYYCQSYDSSLSGSGAVFGGGTQLTVLG
notes: also called 抗体99-2-17; 母本抗体99-2-17
With B2, the binding result with Mus4-1BB-hFc is “binds”. This molecule yielded an EC50 with hu4-1BB-His of 0.411 µg/mL.

B3: Ag10058 (antibody, human IgG4 S228P, kappa, V domains shown)
VH: EVQLVESGGGLVQPGGSLRLSCAASGFSLSTSGVGVGWIRQAPGKGLEWLALIDWDDDKYYSPSLKSRLTISRDNSKNTLYLQLNSLRAEDTAVYYCARGGSDTVLGDWFAYWGQGTLVTVSS
VL: DIQLTQSPSSLSASVGDRVTITCRASQSVSPYLAWYQQKPGKAPKLLIYDASSLESGVPSRFSGSGSGTDFTLTISSLQPEDFATYYCQQGYSLWTFGQGTKVEIKR
notes: also called 阳性对照抗体Ag10058
Regarding B3, the binding result in the test with hu4-1BB-hFc and in the test with 生物素化的hu4-1BB-hFc was “binds” in each case.

B4: Ag10131 (antibody, human IgG4 S228P, kappa, V domains shown)
VH: B3 VH with S32G, D56A, L106I
VL: B3 VL with V29I, S30G, P31S, S53N, S56T, S93Y
notes: also called 阳性对照抗体Ag10131; 对照抗体Ag10131
B4: the binding result (with hu4-1BB-hFc; with 生物素化的hu4-1BB-hFc; with hu4-1BB-His; in test [1]) was “binds” each time.

Values taken from CN116554324A (SANYOU BIO INC, dated 2023).
